# According to the RNAGym collection of RNA variant scans (doi:10.1101/gr.219683.116):
# B1: mRNA-splicing (parent)
# chain: AGUUGCUGCUGGGAGCUCCAGCACAGUGAAAUGGACAGAAGGGCAGAGCAA
# Variants of: B1
# Experiment: exon inclusion enrichment index; higher = more inclusion; WT1 exon 5 minigene, HEK293
row,Variant,exon inclusion enrichment index
1,G5A C6G U7G C9A A31G U32C,0.00508
2,G5A C6G U7G C9A A31G U32A,0.0281
3,G5A C6G U7G C9A A31G U32G,0.0039
4,G5A C6G U7G C9A A14C,0.000759
5,G5A C6G U7G C9A A14U,0.000641
6,G5A C6G U7G C9A A14G,0.00241
7,U4G G5C C6A U7C G8A U10A,0.0964
8,G5A C6G U7C C9A,0.117
9,G5A C6A U7G G8U C9A,0.0264
10,G5A C6G U7A G8C C9A,0.0442
11,G5A C6G U7G C9A A25C G26A,0.00349
12,G5A C6G U7G C9A A25C G26U,0.00184
13,G5A C6G U7G C9A A25C G26C,0.00427
14,U4G G5C C6U U7A G8U C9A,0.157
15,U4G G5U C6G U7G C9A,0.0442
16,G5A C6G U7C G8A C9A,0.0448
17,G5A,0.039
18,G5A C6G U7A C9A U10A,0.0116
19,G5A C6G U7G C9A A35G C36A,0.00181
20,G5A C6G U7G C9A A35G C36U,0.00169
21,G5A C6G U7G C9A A35G C36G,0.00533

row,Variant,exon inclusion enrichment index
1,U4G G5A U7C G8A U10C,3.1
2,G5A C6G U7G C9A A23U C24A,0.000776
3,G5A C6G U7G C9A A23U C24U,0.000744
4,G5A C6G U7G C9A A23U C24G,0.000949
5,G5A C6G U7A G8A U10C,0.237
6,G5A C6G U7G C9A A29G A30G,0.00214
7,G5A C6G U7G C9A A29G A30U,0.000871
8,G5A C6G U7G C9A A29G A30C,0.000858
9,G5A C6G U7G C9A A29U A30G,0.00279
10,G5A C6G U7G C9A A29U A30U,0.000968
11,G5A C6G U7G C9A A29U A30C,0.000854
12,G5A C6A U7C U10C,2.4
13,U4G G5U C6U U7A G8U C9A,0.0955
14,G5A C6G,0.00371
15,G5A C6A,0.0111
16,G5A C6G U7G C9A A35C C36U,0.000826
17,G5A C6G U7G C9A A35C C36A,0.000972
18,G5A C6G U7G C9A A35C C36G,0.00118
19,U4G G5C,0.226
20,U4G G5U,0.105
21,G5A C6G U7A G8A C9A,0.0263

row,Variant,exon inclusion enrichment index
1,G5A C6A U7A G8A U10C,0.831
2,G5A C6A U7C C9A,0.838
3,G5A C6G U7G C9A A30G,0.00525
4,G5A C6G U7G C9A A30U,0.00076
5,G5A C6G U7G C9A A30C,0.00196
6,U4G G5U C6A U7A C9A U10A,0.0439
7,G5A C6G U7G C9A A14C G15A,0.000979
8,G5A C6G U7G C9A A14C G15C,0.000633
9,G5A C6G U7G C9A A14C G15U,0.000655
10,G5A C6G U7A G8U C9A,0.00788
11,G5A C6G U7G C9A A29G,0.00111
12,G5A C6G U7G C9A A29U,0.000861
13,G5A C6G U7G C9A A29C,0.00344
14,G5A C6G U7G C9A A35G,0.00109
15,G5A C6G U7G C9A A35U,0.000728
16,G5A C6G U7G C9A A35C,0.00244
17,U4G G5C G8U C9U,0.642
18,G5A C6G G8A U10C,0.184
19,U4G G5U G8U C9U,0.267
20,G5A C6G G8C C9A,0.0264
21,G5A C6G U7C C9A U10C,0.602

row,Variant,exon inclusion enrichment index
1,G5A C6G U7G C9A A14U G15A,0.000793
2,G5A C6G U7G C9A A14U G15U,0.000762
3,G5A C6G U7G C9A A14U G15C,0.00121
4,U4G G5U C6U G8C C9U U10C,0.824
5,G5A C6A U7C G8U C9A,0.165
6,G5A C6G U7G C9A A14G G15A,0.00342
7,G5A C6G U7G C9A A14G G15U,0.00301
8,G5A C6G U7G C9A A14G G15C,0.00222
9,G5A C6G U7G C9A A30C A31G,0.00621
10,G5A C6G U7G C9A A30C A31C,0.00182
11,G5A C6G U7G C9A A30C A31U,0.00118
12,U4G G5U C6A U7C C9A U10C,2.56
13,G5A C6G U7G C9A A20G G21C,0.00328
14,G5A C6G U7G C9A A20G G21A,0.00277
15,G5A C6G U7G C9A A20G G21U,0.00168
16,U4G G5A C6U G8C C9U U10C,1.22
17,G5A C6G U7C G8C C9A,0.0805
18,U4G G5C U7C G8A U10C,1.75
19,G5A C6G U7G C9A A29C A30G,0.0167
20,G5A C6G U7G C9A A29C A30C,0.00169
